These results are taken from article PMC10576031 (Proceedings of the National Academy of Sciences of the …, 2023).

Assay [1] has as its target Human wild-type tau-K18 (residues 244 to 372), monomer (Homo sapiens, wild type, 2N4R (tau-F) …, UniProt P10636-8). Briefly: far-Western, overlay or dot blot.
The target of another assay is tau-K18 fibrils (Homo sapiens, wild type, 2N4R (tau-F) …, UniProt P10636-8). The assay can be described thus: far-Western, overlay or dot blot.
tau-K18 fibrils, sequence (P10636 561-689): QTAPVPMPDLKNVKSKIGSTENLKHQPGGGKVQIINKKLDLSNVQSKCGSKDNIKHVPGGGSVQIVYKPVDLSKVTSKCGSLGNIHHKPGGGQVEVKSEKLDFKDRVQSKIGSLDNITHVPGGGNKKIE

Human wild-type tau-K18 (residues 244 to 372), monomer, sequence (P10636 561-689): as above

B1: VDW nanobody (first generation, scaffold 1) (VHH)
VHH: QVQLQESGGGLVQPGGSLRLSCAASGRTFSSYNMGWFRQAPGKGREFVASITSSGDKSDYTDSVKGRFTISRDNAKNTMYLQMNNLKPEDTATYYCARGSVWIWYEPVDWSEGTQVTVSS
For B1, the binding result (in assay [1]; with tau-K18 fibrils) was “binds” throughout.
